The nanobody polyreactivity screen of Harvey et al. (2022)

assay: yeast display, Sf9 membrane polyspecificity reagent, FACS + sequencing; frameworks hold sequencing errors
Procedure, shortened: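 Genes from sorted yeast were amplified by colony PCR, read by MiSeq 2 × 250 sequencing and filtered on CDR length. These cells carried a synthetic nanobody library in Saccharomyces cerevisiae BJ5465 and were sorted by FACS into low and high (top ~1%) gates on anti-HA and streptavidin fluorescence. Polyreactivity is labelled according to the gate of origin.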

Row | Sequence | polyreactivity (PSR sort gate)
1 | QVQLVESGGGLVQAGGSLRLSCADSGGIFLSYGMGWYRQAPGKERELVAAISRNDGRTYYADSVKGRFTISRDNAKNTVYLQMNSLKPEDTAVYYCAADPEYYYYIYVYVQYDYWGQGTQVTVSS | low polyreactivity
2 | QVQLVESGGGLVQAGGSLRLSCADSGITIVWYAIGWYRQAPGKERELVAAISRGGGSTYYADSVKGRFTISRDNAKNTVYLQMNSLKPEDTAVYYCAASGGYTFDWLEFDYWGQGTQVTVSS | low polyreactivity
3 | QVQLVESGGGLVQAGGSLRLSCADSGLTFYDYAMGWYRQAPGKERELVADIDFNGGSTSYADSVKGRFTISRDNAKNTVYLQMNSLKPEDTAVYYCNTRDRGDVVTGLDYWGQGTQVTVSS | low polyreactivity
4 | QVQLVESGGGLVQAGGSLRLSCADSGNIIWGNAIGWYRQAPGKERELVAAISRRSGSTYYADSVKGRFTISRDNAKNTVYLQMNSLKPEDTAVYYCNTAGRVGTYDYWGQGTQVTVSS | high polyreactivity
5 | QVQLVESGGGLVQAGGSLRLSCADSGNTFYGYAMGWSRQSPGTERELVASITLSGDSTYYADSVKGRFTISRDNAKNTVYLQMNSLKPEDTAVYYCAGVYTYPLGYYHYTYDYWGQGTQVTVSS | low polyreactivity
6 | QVQLVESGGGLVQAGGSLRLSCADSGRIFLTNAMGWYRQAPGKERELGATITSGGSTNYADSVKGRFTISRDNAKNTVYLQMNSLKPVDTAVYDCAADWEFGFDYWGQGTQVTVSS | low polyreactivity
7 | QVQLVESGGGLVQAGGSLRLSCADSGRIFVAYAMGWYRQAPGKERELFADITWSGDITYYADSVKGRFTISRDNAKNTVYLQMNSLKPEDTAVYYCAADYHRRRTDYDYWGQVTQVTVSS | low polyreactivity
8 | QVQLVESGGGLVQAGGSLRLSCADSGRIFVLYAMGWYRQAPGKERELVAAISRSSTSTYYADSVKGRFTISRDNAKNTGYLQMNSLKPEDTAVYYCAARGRYAYPRYGYYPVNYWGQGTQVTVSS | high polyreactivity
9 | QVQLVESGGGLVQAGGSLRLSCADSGRIFWTNAMVWYRQAPGKERELVAAISYNGASTFYADSVKGRFTISRDNAKNTVSLQMNSLKPEDTAVYYCNAYSSRYRYNYWGQGTQVTVSS | high polyreactivity
10 | QVQLVESGGGLVQAGGSLRLSCADSGRILTFNAMGWYRQAPGKERELVASISNGGSTNYADSVKGRFTISRDNAKNTVYLQMNSLKPEDTAVYYCDADWRQGMWYGYYYWGQGTQVTVSS | low polyreactivity
11 | QVQLVESGGGLVQAGGSLRLSCADSGRTFYQNAKGWYRQAPGKEREFVAAISWSSGSTYYADSVKGRFTISRDYAKNTVYLQMNSLKPEDTAVYYCAAYTSFPYIWYGYWGQGTQVTVSS | high polyreactivity
12 | QVQLVESGGGLVQAGGSLRLSCADSGRTIPFYAMGWYRQAPGKERELVAAISSSAGRTYYADSVKGRFTISRDNAKNTVSLQMNSLKPEDTAVYYCAARLYGRYRYDYWGQGTQVTVSS | low polyreactivity
13 | QVQLVESGGGLVQAGGSLRLSCADSGSIFEVYAMGWYRQAAGKERELVAAINYTGGSTYYADSVKGRFTISRDNAKITVYLQMNSLKPEDTAVYYCARDTSGNGTRYDYWGQGTQVTVSS | low polyreactivity
14 | QVQLVESGGGLVQAGGSLRLSCADSGSIFLPYAMGCYRKAPGKERELVAAITWGGDSTYADSVKGRFTISRDNAKNTVYLQMNSQKPEDTAVYYCAAGAGFESDYWGQGTQVTVSS | low polyreactivity
15 | QVQLVESGGGLVQAGGSLRLSCADSGSIFQYNTMGWYRQAPGKERELVADINGRGGSTYYADSVKGRFTISRDNAKNTVYLQMNSLKPEDTAVYYCAVEGVSTYLWTSYGYWGQGTQVTVSS | low polyreactivity
16 | QVQLVESGGGLVQAGGSLRLSCADSGSIFYRYAMGWYRQAPGKERELGAAISQSGGSTYYADSVKGRFTISRDNAKNTVYLQMNSLKPEDTAVYYCQLIRRGHDYWGQGTQVTVSS | high polyreactivity

Row | Sequence | polyreactivity (PSR sort gate)
17 | QVQLVESGGGLVQAGGSLRLSCADSGSIGLYAMGWYRQAPGKETELVAVISRNGGSTYYADSVKGRFTISRDNAKNTVYLQMNSLKPEDTAVYYCAKRRLERGTGDYWGQGTQVTVSS | high polyreactivity
18 | QVQLVESGGGLVQAGGSLRLSCADSGSIQYYAMGWYRQAPGKERELVAAITWSGVSTSYADSVKGRFTISRDNAKNTVYLQMNRLKPEDTAVYYCNKDPGTLYGDLDSWGQGTQVTVSS | low polyreactivity
19 | QVQLVESGGGLVQAGGSLRLSCADSGSTFDDNAMGWYRQAPGKDRELVASITYRGGSTYYADSVKGRFTISRDNAKNTVYLQMNSLKPEDTAVYYCAKGHYFKYDYWGQGTQVTVSS | low polyreactivity
20 | QVQLVESGGGLVQAGGSLRLSCADSGSTFEANAMGWYRQAPGKERELVAAISSGGRTYYADSEKGRFTISRDNAKNTVYLKRNSLKPEDTAVYYCAAYVRRGFDWGQGTQVTVSS | high polyreactivity
21 | QVQLVESGGGLVQAGGSLRLSCADSGSTFRRKVMGWYRQAPGKERELVASIRSGGTTNYADSVKGRFTISRDNAKNTVYLQMNSLKPEDTAVYYCAAARSRGYYRASAEVLYGYWGQGTQVTVSS | high polyreactivity
22 | QVQLVESGGGLVQAGGSLRLSCADSGSTFSPDAMGWYIQAPGKERALVAAIRYSGTSTYYADSVKGRFTISRDNAKKTVYLQMNSLKPEDTAVYYCNTVFKYQGVRPYGYWGQGTQVTVSS | high polyreactivity
23 | QVQLVESGGGLVQAGGSLRLSCADSGSTFWFYTMGWYRQAPGKERELVATITSGGSTNYADSVKGRFTISRDNAKNTVYLQMNSLKPEDTAVYYCAASSVLTNHDYWGQGTQVTVSS | low polyreactivity
24 | QVQLVESGGGLVQAGGSLRLSCADSGYTFSPNAMGWYRQAPGKELELVAAISSAVSTDYADSVKGRFTISRDNAKNTVYLQMNSLKPEDTAVYYCAADDQYRVTLGYDYWGQGTQVTVSS | low polyreactivity
25 | QVQLVESGGGLVQAGGSLRLSCADSGYTFVYNAMGWYRQPPGKEREFVAAITWSGTSTRYADSVKGRFTISRDNAKNTVYLQMNSLKPEDTAVYYCAALGSGVPRYYYWGQGTQVTVSS | high polyreactivity
26 | QVQLVESGGGLVQAGGSLRLSCAFYYGMGWYRQAPGKERELVAAITLGGGSTYYADSVKGRFTISRDNAKNTVYLQMNSLKPEDTAVYYCNVTDVTEPSLIDGYYWGQGTQVTVSS | low polyreactivity
27 | QVQLVESGGGLVQAGGSLRLSCAGSGATYERYAMGWSRPAPGKERALVAASNKRGGNTYYADSVKGRFTISRDNAKKTVYLQMNSLKPEDTAVYYCAADHLDRTEFPYYYWGQGTQVTVSS | high polyreactivity
28 | QVQLVESGGGLVQAGGSLRLSCAGSGHIFPYNAMGWYRQGPGKEREFVAAISFRGGSRYYADSEKGRFTISRDNAKNTVYLQMNSLKPEDTAVYYCAKRSYPWGQGTQVTVSS | low polyreactivity
29 | QVQLVESGGGLVQAGGSLRLSCAGSGIIFRGYDMGWYRQAPGKEMELVAAITWRGGSTYYADSVKGRFTISRDNAKNTVYLQMNSLKPEDTAVYYCAAVRKHSWFRHMDYWGQGTLVTVSS | high polyreactivity
30 | QVQLVESGGGLVQAGGSLRLSCAGSGLIFRIYAMGWYTQAPGKEREFVAAIRWRGGSTYYADSVKGRFTISRDNAKNTVYLQMNSLKPEDSAVYYCAVRYCPYRPRLDYWGQGTQVTVSS | high polyreactivity
31 | QVQLVESGGGLVQAGGSLRLSCAGSGRIFFWYVMGWYRQAPGKERELVAAISSGGRTYYADSVKGRFTISRDNAKNTVYLQMNSLKPEDTAVYYCAAVRRYLKAAYGYWGQGTQVTVSS | low polyreactivity
32 | QVQLVESGGGLVQAGGSLRLSCAGSGRIFRTYAMGWFRQAPGKEGEFVAGISRGGSTDYADSVKGRFTISRDNEKNTVYLQMNSLKPEDSAVYYCAAASLRYYSPRVRYPYYYWGQGTQVTVSS | high polyreactivity
